# In patent publication US20120022128:
# Assays:
# [1] = test system: recombinant Akt
# [2] = test system: T1, recombinant PKIB
# T1 sequence: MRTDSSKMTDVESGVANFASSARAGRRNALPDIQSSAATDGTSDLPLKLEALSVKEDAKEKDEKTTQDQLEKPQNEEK
substance,measurement,setting,value
recombinant PKA-C kinase,"phosphorylation of Akt-Ser473, in vitro kinase assay with recombinant proteins (western blot with anti-phospho-Akt (Ser473) antibody)",[1],phosphorylated Ser473-specific antibody detected phosphorylated Akt when PKA-C kinase reacted with recombinant Akt
same,"phosphorylation of Akt-Ser473 by PKA-C, in vitro kinase assay with recombinant proteins",[2],the phosphorylation level of Akt (Ser473) was clearly enhanced by addition of PKIB
